We go through 1 molecule from patent publication US20170137467A1 (CHROMOTEK, published 2017).

Square brackets hold non-standard residues; d marks the D form. GABA = NCCCC(=O)O

Holding throughout (test): peptide library pulldown on immobilized Nb, LC-MS of supernatant; ratio vs GFP-Nb control (1 = not captured, 0 = captured)
Assay [1] addresses T1, BC2T Q11P library peptide (human).
T1 peptide: Ac-PDRKAAVSHWPQ-NH2
An excerpt: (§1) In total, 12 different BC2T libraries displaying all 20 proteinogenic amino acids in one single position of the peptide were used in immunoprecipitation experiments. […] The direct comparison with the GFP-Nb made it possible to determine the quantitative degree of peptide capture without the need of labeled standards. […] The more peptide was captured the more the value approximates 0. It was not possible to discriminate between isoleucine (I) and leucine (L) peptide versions since these peptides are isobaric.
(§2) To investigate the binding specificity of the BC2T and derived mutants peptide libraries for each amino acid position of the sequence […] (SEQ ID NO:4) were synthesized with acetyl and amide groups located at the N-termini or C-termini respectively (Intavis). […] Incubations were performed in 300 μl PBS/0.01% CHAPS for 1 h on a HulaMixer (Life Technologies). Subsequent to a centrifugation step 10 μl supernatant were analyzed in a LC-MS procedure. Peptides were separated using an UltiMate3000 RSLCnano System (Thermo Scientific), composed of a C18 PepMap100μ-Precolumn (300 μm×5 mm; particle size: 5 μm; pore size: 100 Å—Thermo Scientific) and a C18 analytical column (Acclaim Rapid Separation LC (RSLC) Column: 150 mm×5 mm; particle size: 2.2 μm; pore size: 100 Å—Thermo Scientific). A step gradient was applied starting at 8% and ending after 20 min at 30% eluent B (80% acetonitrile, 20% H₂O, 0.1% formic acid).

The target in a further assay is T2, BC2T H9Y library peptide (human).
T2 peptide: Ac-PDRKAAVSYWQQ-NH2
Description: as §1, §2

Assay [2] addresses T3, BC2T W10T library peptide (human).
T3 construct: also called BC2TW10X: T
T3 peptide: Ac-PDRKAAVSHTQQ-NH2
Description: as §1, §2

Another assay addresses T4, BC2T S8A library peptide (human).
T4 construct: also called BC2TS8X: A
T4 peptide: Ac-PDRKAAVAHWQQ-NH2
Description: as §1, §2

Assay [3] addresses T5, BC2T W10Y library peptide (human).
T5 construct: also called BC2TW10X: Y
T5 peptide: Ac-PDRKAAVSHYQQ-NH2
Description: as §1, §2

For assay [4], the target named is T6, BC2T Q11C* library peptide (human, SMILES …).
T6 construct: also called C(Abu)
T6 peptide: Ac-PDRKAAVSHW[GABA]Q-NH2
Description: as §1, §2

The target in a further assay is T7, BC2T S8E library peptide (human).
T7 construct: also called BC2TS8X: E
T7 peptide: Ac-PDRKAAVEHWQQ-NH2
Description: as §1, §2

The target of another assay is T8, BC2T H9T library peptide (human).
T8 peptide: Ac-PDRKAAVSTWQQ-NH2
Description: as §1, §2

The target of assay [5] is T9, BC2T S8(I/L) library peptide, version 2 (N-terminal acetyl, C-terminal amide).
T9 construct: Ile and Leu versions are isobaric; two versions resolved but not assigned; also called BC2TS8X: I/L2
Description: as §1, §2

Another assay has as its target T10, BC2T S8T library peptide (human).
T10 construct: also called BC2TS8X: T
T10 peptide: Ac-PDRKAAVTHWQQ-NH2
Description: as §1, §2

For assay [6], the target named is T11, BC2T Q12V library peptide (human).
T11 peptide: Ac-PDRKAAVSHWQV-NH2
Description: as §1, §2

Another assay concerns the target T12, BC2T S8W library peptide (human).
T12 construct: also called BC2TS8X: W
T12 peptide: Ac-PDRKAAVWHWQQ-NH2
Description: as §1, §2

A further assay deals with T13, BC2T S8V library peptide (human).
T13 construct: also called BC2TS8X: V
T13 peptide: Ac-PDRKAAVVHWQQ-NH2
Description: as §1, §2

Assay [7] has as its target T14, BC2T W10S library peptide (human).
T14 construct: also called BC2TW10X: S
T14 peptide: Ac-PDRKAAVSHSQQ-NH2
Description: as §1, §2

Assay [8] addresses T15, BC2T W10A library peptide (human).
T15 construct: also called BC2TW10X: A
T15 peptide: Ac-PDRKAAVSHAQQ-NH2
Description: as §1, §2

Assay [9] addresses T16, BC2T Q11F library peptide (human).
T16 peptide: Ac-PDRKAAVSHWFQ-NH2
Description: as §1, §2

Assay [10] has as its target T17, BC2T Q12E library peptide (human).
T17 peptide: Ac-PDRKAAVSHWQE-NH2
Description: as §1, §2

Assay [11] deals with T18, BC2T W10(I/L) library peptide, version 1 (N-terminal acetyl, C-terminal amide).
T18 construct: Ile and Leu versions are isobaric; two versions resolved but not assigned; also called BC2TW10X: I/L1
Description: as §1, §2

The target in assay [12] is T19, BC2T W10C* library peptide (human, SMILES …).
T19 construct: also called BC2TW10X: C*; C(Abu)
T19 peptide: Ac-PDRKAAVSH[GABA]QQ-NH2
Description: as §1, §2

B1: BC2-Nb(R106E) (VHH)
VHH: QVQLVESGGGLVQPGGSLTLSCTASGFTLDHYDIGWFRQAPGKEREGVSCINNSDDDTYYADSVKGRFTIFMDNAKDTVYLQMNSLKPEDTAIYYCAEARGCKRGEYEYDFWGQGTQVTVSS
notes: Headlock mutant; immobilized on beads in the library pulldown
Consider B1, for which the ratio was found to be 0.9 in assay [1]; 0.1 with BC2T H9Y library peptide; 1.1 in assay [2]; 0.1 with BC2T S8A library peptide; 1 in assay [3]; 0.2 in [4]. Also, the ratio with BC2T S8E library peptide was 0.9; in the assay with BC2T H9T library peptide, 0.4; in assay [5] it was 0.9; with BC2T S8T library peptide it was 0.1; in assay [6] it was 0.1; with BC2T S8W library peptide it was 0.9. In addition, the ratio stood at 0.2 with BC2T S8V library peptide; 1.2 in assay [7]; 1.1 in assay [8]; 0.1 in assay [9]; 0.6 in assay [10]; 1 in assay [11]. Further, the ratio in assay [12] came out at 1.1.
